Data reported in the supplement of paper PMC10126150.
± gives the standard deviation of the averaged measurements.

System: ATP
Assay: switch fluorescence ratio, 500 uM ATP over buffer (Cy3 cluster intensity, sum of 5 cycles each) (fold (ratio)); higher = stronger signal-on switching upon ATP binding; sequences stand for … in TCGTCGGCAGCGTCAGATGTGTATAAGAGACAGTTTTTTTTTTTTTTTTTTTTTTTTT…TC
Details: aptamer strand: ATP DNA aptamer (quencher-CACCTGGGGGAGTATTGCGGAGGAAGG + anchor), 100 nM annealed; ATP concentration: 500 uM
In short: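 Per cluster, summed Cy3 intensity from the target cycles was divided by that from the buffer cycles to give the fluorescence ratio, then averaged per switch-domain sequence. Clusters outside 100-1000 RFU were excluded. The Cy3-labelled switching-strand clusters, on a modified Illumina MiSeq flow-cell, were annealed to 100 nM quencher-labelled ATP aptamer and imaged in selection buffer, then after 15 min with 500 uM ATP at 22 °C, for five cycles with NaOH stripping and re-annealing between them.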
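Also: ATP exposure 15 min at 22 °C before imaging.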

Row | Sequence | switch fluorescence ratio
1 | ACATCGTCAT | 1.01 ± 0.02
2 | ACATCGTTCT | 0.977 ± 0.018
3 | ACATCTGACA | 1.06 ± 0.019
4 | ACATCTTTTA | 1.03 ± 0.038
5 | ACATGAGCGT | 0.996 ± 0.016
6 | ACATGAGGTG | 1.18 ± 0.064
7 | ACATGAGTCT | 1.02 ± 0.02
8 | ACATGGAGAG | 0.985 ± 0.052
9 | ACATGGATAA | 1.012 ± 0.0044
10 | ACATGGGCT | 1.003 ± 0.0088
11 | ACATGGGGGA | 1.02 ± 0.0082
12 | ACATGGGTT | 1.04 ± 0.05
13 | ACATGTCTGA | 0.9991 ± 0.0024
14 | ACATGTGGAT | 0.996 ± 0.05
15 | ACATGTTATT | 1.01 ± 0.035
16 | ACATTACACA | 1.4 ± 0.25
17 | ACATTAGTGG | 1.01 ± 0.01
18 | ACATTCTATT | 1.01 ± 0.021
19 | ACATTTTGGT | 0.995 ± 0.03
20 | ACCAATTTTG | 1.01 ± 0.024
21 | ACCACAATGT | 1.08 ± 0.055
22 | ACCACCGTTG | 1.113 ± 0.0039
23 | ACCACGGGGT | 1.02 ± 0.038
24 | ACCAGATGCG | 1.01 ± 0.03
25 | ACCAGCCTGG | 1.01 ± 0.025

Row | Sequence | switch fluorescence ratio
26 | ACCAGGGTCA | 1.05 ± 0.034
27 | ACCAGTCTGG | 1.01 ± 0.017
28 | ACCAGTGTCA | 1.02 ± 0.021
29 | ACCATGGCTT | 0.976 ± 0.013
30 | ACCATGGGAA | 1.04 ± 0.022
31 | ACCATGTTTG | 1.012 ± 0.0072
32 | ACCCAGGGCG | 1.44 ± 0.13
33 | ACCCATCCAT | 1.02 ± 0.017
34 | ACCCGCTTTT | 1.38 ± 0.31
35 | ACCCGGCTCC | 1.23 ± 0.045
36 | ACCCGTTGTG | 1.05 ± 0.03
37 | ACCCTCGCAG | 1.748 ± 0.0058
38 | ACCCTGGGGT | 2.14 ± 1.6
39 | ACCGATACCC | 1.31 ± 0.022
40 | ACCGCGGGGG | 1.03 ± 0.034
41 | ACCGCGGTGT | 1.007 ± 0.0052
42 | ACCGCGTATG | 1.03 ± 0.038
43 | ACCGCTATGT | 1.57 ± 0.019
44 | ACCGGAGTCA | 1.22 ± 0.058
45 | ACCGGGAGAT | 0.994 ± 0.042
46 | ACCGGGAGGT | 1.01 ± 0.049
47 | ACCGGGGCAA | 1.13 ± 0.16
48 | ACCGGGTTGC | 1.064 ± 0.008
49 | ACCGGTACTC | 1.31 ± 0.047
50 | ACCGGTGTAC | 1.77 ± 0.12

Row | Sequence | switch fluorescence ratio
51 | ACCGGTTATT | 1 ± 0.013
52 | ACCGGTTGCC | 0.974 ± 0.058
53 | ACCGGTTGGT | 0.976 ± 0.01
54 | ACCGGTTTCT | 0.997 ± 0.037
55 | ACCGTAGGTG | 1.03 ± 0.034
56 | ACCGTGAAGG | 0.99924 ± 8.2e-05
57 | ACCGTGTCAA | 1.01 ± 0.032
58 | ACCGTGTCGT | 0.989 ± 0.095
59 | ACCGTTAGGT | 0.951 ± 0.037
60 | ACCTACGCGG | 1.97 ± 0.22
61 | ACCTAGGACT | 1.024 ± 0.0027
62 | ACCTAGTAAA | 0.987 ± 0.025
63 | ACCTCACTTT | 1.303 ± 0.005
64 | ACCTCATTAA | 1.03 ± 0.015
65 | ACCTCCCGGG | 1.13 ± 0.17
66 | ACCTCGGTCG | 0.983 ± 0.019
67 | ACCTGATTAA | 1.01 ± 0.018
68 | ACCTGGGCAG | 1.07 ± 0.015
69 | ACCTTACTTA | 1.29 ± 0.029
70 | ACCTTCCGGG | 2.37 ± 0.084
71 | ACCTTGATTG | 1.01 ± 0.018
72 | ACCTTGCACA | 1.252 ± 0.012
73 | ACCTTTTTAG | 1.02 ± 0.015
74 | ACCTTTTTAT | 1.02 ± 0.038
75 | ACGAAAAAAG | 1.02 ± 0.012

Row | Sequence | switch fluorescence ratio
76 | ACGAAGGGCG | 1.019 ± 0.01
77 | ACGAAGGGTC | 0.9941 ± 0.0098
78 | ACGAATAAGG | 1.03 ± 0.021
79 | ACGACAGATG | 0.961 ± 0.046
80 | ACGACCATCG | 1.01 ± 0.02
81 | ACGACGAAAC | 3.35 ± 1
82 | ACGACGAAGG | 1.06 ± 0.083
83 | ACGACTTAGG | 1.07 ± 0.017
84 | ACGACTTTAG | 1.022 ± 0.0014
85 | ACGAGAACGA | 1.05 ± 0.021
86 | ACGAGATGGT | 1.023 ± 0.0069
87 | ACGAGCGCGT | 1.02 ± 0.027
88 | ACGAGGCCAG | 1.23 ± 0.032
89 | ACGAGGCGTA | 1.04 ± 0.0046
90 | ACGAGGCTTC | 1.294 ± 0.0082
91 | ACGAGGGAGC | 1.05 ± 0.017
92 | ACGAGGTTGG | 1.04 ± 0.084
93 | ACGAGTGAAA | 1.02 ± 0.045
94 | ACGAGTGGCG | 0.933 ± 0.021
95 | ACGAGTTCCC | 1.01 ± 0.043
96 | ACGAGTTTGG | 0.963 ± 0.036
97 | ACGAGTTTTT | 1.01 ± 0.021
98 | ACGATAGGGG | 1.03 ± 0.031
99 | ACGATAGGTA | 1.06 ± 0.026
100 | ACGATGAAGG | 1.01 ± 0.021

Row | Sequence | switch fluorescence ratio
101 | ACGATGATGT | 1.0279 ± 0.00059
102 | ACGATGCGGG | 1.09 ± 0.025
103 | ACGATGGCTG | 1.04 ± 0.015
104 | ACGATTAGTT | 0.971 ± 0.032
105 | ACGATTGGGT | 0.992 ± 0.013
106 | ACGCAGTATA | 1.05 ± 0.013
107 | ACGCAGTTCT | 1.061 ± 0.008
108 | ACGCCCATTT | 1.15 ± 0.06
109 | ACGCCGGATT | 1.01 ± 0.027
110 | ACGCCGGCGA | 0.9729 ± 0.002
111 | ACGCCGGCTT | 1.272 ± 0.0019
112 | ACGCCGTATG | 1 ± 0.011
113 | ACGCGCGGAA | 1.008 ± 0.003
114 | ACGCTATCGC | 1.526 ± 0.0041
115 | ACGCTCCTAC | 2.64 ± 0.028
116 | ACGCTCGACC | 1.75 ± 0.15
117 | ACGCTGGTGT | 1.34 ± 0.44
118 | ACGCTGTCGG | 1.006 ± 0.0068
119 | ACGCTGTTGG | 1.01 ± 0.035
120 | ACGGAAAGTT | 0.9876 ± 0.0071
121 | ACGGAATTTT | 1.09 ± 0.08
122 | ACGGAGACGG | 0.979 ± 0.067
123 | ACGGAGGGTT | 0.992 ± 0.01
124 | ACGGATATGG | 0.98 ± 0.011
125 | ACGGATCCTT | 1.026 ± 0.0059

Row | Sequence | switch fluorescence ratio
126 | ACGGATTAGG | 1.01 ± 0.021
127 | ACGGCAGGAA | 1.04 ± 0.043
128 | ACGGCATCAT | 1.076 ± 0.0017
129 | ACGGCCGGGG | 1.04 ± 0.027
130 | ACGGCGCTTA | 1.19 ± 0.054
131 | ACGGCGGGGG | 1.15 ± 0.25
132 | ACGGCTAGCG | 1.02 ± 0.022
133 | ACGGCTGCGT | 1.05 ± 0.029
134 | ACGGCTTACT | 1.208 ± 0.0019
135 | ACGGGCAGAG | 1.02 ± 0.013
136 | ACGGGCCGGT | 0.98 ± 0.069
137 | ACGGGCGCAG | 0.994 ± 0.017
138 | ACGGGCTGCT | 1 ± 0.018
139 | ACGGGGAGGG | 1.04 ± 0.037
140 | ACGGGGGAGT | 1.03 ± 0.019
141 | ACGGGGGCGC | 0.986 ± 0.059
142 | ACGGGGGCGG | 1 ± 0.033
143 | ACGGGGGCTT | 1.04 ± 0.062
144 | ACGGGGGGTT | 1.05 ± 0.085
145 | ACGGGGTCCG | 0.95 ± 0.03
146 | ACGGGGTCT | 1.02 ± 0.012
147 | ACGGGGTGGT | 1.065 ± 0.0059
148 | ACGGGGTGTA | 0.986 ± 0.041
149 | ACGGGTATGG | 1.01 ± 0.017
150 | ACGGGTGAGC | 1.09 ± 0.011

Row | Sequence | switch fluorescence ratio
151 | ACGGGTGGGA | 1.005 ± 0.0036
152 | ACGGGTTGGC | 1.064 ± 0.0044
153 | ACGGGTTTGT | 0.9774 ± 0.0036
154 | ACGGTAAGTG | 1.02 ± 0.042
155 | ACGGTATCTT | 1.13 ± 0.019
156 | ACGGTATGTG | 1.03 ± 0.033
157 | ACGGTATTTG | 1.13 ± 0.035
158 | ACGGTCACCC | 1.66 ± 0.07
159 | ACGGTCGGA | 0.9979 ± 0.0048
160 | ACGGTCGTTA | 0.975 ± 0.027
161 | ACGGTCTGGC | 1.02 ± 0.035
162 | ACGGTGGTGT | 1.03 ± 0.016
163 | ACGGTTGAGC | 1 ± 0.021
164 | ACGGTTGATG | 0.986 ± 0.021
165 | ACGGTTGTTT | 1.0154 ± 0.00077
166 | ACGGTTTAAC | 1.105 ± 0.005
167 | ACGGTTTTTG | 0.993 ± 0.029
168 | ACGTAAACGC | 1.085 ± 0.0018
169 | ACGTACATGT | 1.44 ± 0.018
170 | ACGTAGGCGG | 1.02 ± 0.062
171 | ACGTATATTG | 1.058 ± 0.0052
172 | ACGTCAAGGG | 1.1 ± 0.067
173 | ACGTCAAGTA | 0.985 ± 0.022
174 | ACGTCGCATT | 1.19 ± 0.035
175 | ACGTCGCCGG | 0.987 ± 0.038

Row | Sequence | switch fluorescence ratio
176 | ACGTCGGGCT | 1.01 ± 0.021
177 | ACGTCGGTAC | 3 ± 0.49
178 | ACGTCTTACT | 1.101 ± 0.0018
179 | ACGTCTTAGT | 1 ± 0.021
180 | ACGTGCAATT | 1.37 ± 0.21
181 | ACGTGGTATG | 1.02 ± 0.015
182 | ACGTGTACGG | 1.03 ± 0.022
183 | ACGTGTGAC | 1 ± 0.023
184 | ACGTTAAGCG | 1.01 ± 0.035
185 | ACGTTAATGC | 2.09 ± 0.21
186 | ACGTTAGGTC | 1.04 ± 0.019
187 | ACGTTATTTG | 1.11 ± 0.052
188 | ACGTTCGGAG | 1.05 ± 0.05
189 | ACGTTCGGCG | 0.9968 ± 0.0021
190 | ACGTTGCAGA | 1.006 ± 0.006
191 | ACGTTGCTAA | 1.0246 ± 0.00021
192 | ACGTTGCTGA | 1.02 ± 0.028
193 | ACGTTGTGAG | 0.969 ± 0.037
194 | ACGTTTACCA | 1.217 ± 0.0099
195 | ACGTTTCCCC | 1.09 ± 0.025
196 | ACGTTTTCGG | 0.9837 ± 0.0052
197 | ACGTTTTGAG | 1.0122 ± 0.00047
198 | ACTAAAAGGC | 1.0107 ± 3.2e-05
199 | ACTAAATAGT | 0.987 ± 0.013
200 | ACTAAGGATT | 1.02 ± 0.018
